In experiment [1] the target is prefusion-stabilized RSV F strain A2 (DS-Cav1). Put plainly: SPR. (In general: In SPR one partner is held on a chip, and binding of the other changes the refractive index at the surface.)
Experiment [2] shares this target. Put plainly: SPR. This is another data set of the same source.

B1: 5C4 Fab (Fab, V domains shown)
VH: EVQLQQSGAELVKPGASVKLSCTASGFNIKDTFFHWVKQRPEQGLEWIGRIDPADGHTKYDPKFQGKATITADTSSNTAFLQLSSLTSVDTAVYYCATTITAVVPTPYNAMDYWGQGTSVTVSS
VL: DIVLTQSPASLAVSLGQRTTISCRASESVDSFDNSFIHWYQQKPGQPPKLLIFLASSLESGVPARFSGSGSRTDFTLTIDPVEADDAATYYCQQSNEDPFTFGSGTKLEIK
As to B1, binding in experiment [1] was put at a Kd of 25.7 nM. In experiment [2], this molecule displayed a koff of 0.00454 s⁻¹.

As a reminder, the Kd is the equilibrium constant for the complex coming apart. A lower Kd goes with higher affinity. One may read the koff as the first-order rate constant of dissociation. Low readings indicate slow dissociation, high ones fast dissociation.

Source of the values: paper PMC5707411 (2017).
